# Assay results from a protein production outcome set (Wang et al. 2014).
# Test: label from the status in PepcDB records
# 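Also: failed if final PepcDB status was selected cloned or expressed and not failed if soluble or beyond.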
row,Sequence,protein production
1,SDMGTSALSKKPWWTLPQNFHAPMVFHMEEDQEELIFGHGDTYLRCIEVHSHTLIQLESWFTATGQTRVTVGPHRARQWLLHMFCCVGSQDSYHHARGLEMLERVRSQPLTNDDLVTSISVPPYTGDLSLAPRISGTVCLSVPQPSPYQVIGCSGFHLSSLYP,failed
2,SDRGQAEEAAGRQARAVSLAIADSPSVAEAIRTPDPTALLQPYAVRVMRDTDVDFVTIMNPEGIRWTHPEPTEIGHLFQGHIERAQRGQTFTETYTGTLGPSVRAVTPIVDDGRIVGLVSAGIKVEEIS,failed
3,SDSLETTQQDYPDCFFQHVKVNVKNPYDLTRQVCSSMDQWLTERLDSEPLSLAILVDSATSILYLSNQSNSFSLLFHYLRVMGRKLSPTLYCVCQLIHFDMGYGDELLKEAKFYDSLILQLDALPLGVPSEQDGRLSIEERDQAISTVLFKILENQIKFFTI,failed
4,SDWLWQTDAHGRLVHVPERFVEVAKLPPSLLIGAPLADVIGMLCPEDGRCAMGVAAKMAQREPMNDLVVHVVIGGTPRLWSLTAKPMFDAAGEFAGYRGVGRDVTERWRAEQAEAENRAKSSFLAMMSHEIRTPMNGVLGLANSLLETK,failed
5,SDYEKFLLFGDSITEFAFNTRPIEDGKDQYALGAALVNEYTRKMDILQRGFKGYTSRWALKILPEILKHESNIVMATIFLGANDACSAGPQSVPLPEFIDNIRQMVSLMKSYHIRPIIIGPGLVDREKWEKEKSEEIALGYFRTNENFAIYSDALAKLANEEKVPFVALNKAFQQEGGDAWQQLLTDGLHFSGKGYKIFHDELLKVIETFYPQYHPKNMQYKLKDWRDVLDDGSNIMS,not failed
6,SEAEGNQVYFAVYTFKARNPNELSVSANQKLKILEFKDVTGNTEWWLAEVNGKKGYVPSNYIRKTE,not failed
7,SEEDNRAPQLWRKTLTAPAPFADETNCQCQAPHEKLTIAQARLGTPADRPVRVYADGIFDLFHSGHARALMQAKTLFPNSYLLVGVCSDDLTHKFKGFTVMNEAERYEALRHCRYVDEVIRDAPWTLTPEFLEKHKIDFVAHDDIPYSSAGSDDVYKHIKEAGMFVPTQRTEGISTSDIITRIVRDYDVYARRNLQRGYTAKELNVSFINEKRYRFQNQVDKMKEKVKNVEERSKEFVNRVEEKSHDLIQKWEEKSREFIGNFLELFGPDGAWKQMFQERSSRMLQALSPKQSPVSSPTRSRSPSRSPSPTFSWLPLKTSPPSSPKAASASISSMSEGDEDEK,failed
8,SEILRKFKILGRSKSPIFAFTVTAGLALTAVTGSATAVSIFRDSPSNKIATAVEGVVRSSRAIYSITLTVADYKYTLRRLPADSDEYLQRLTEVHSRSAKRILKLCESNKGFYVKAGQFVATLKLVPKEYSLALSSLQDKAVPCNFQEIKQVLTSNLGQNLTEIYLSFDEEPIAAASIAQVHHAVLKNHQEVAVKVQYPGLKQNMMLDTMIMSFLSKSVAKIFPEYRFDWLVYEFVKSISQELDFLQEAKNSERIAKNFKHNKMITIPTVFSEFTTTQVLTMQFCKGFKVDDVESLKRTNVSPEKVAKVLVEVFAEMIFVHGFIHGDPHPGNILVSPEGQNGFSLVLLDHGNCKTLDEAFRRDFCRLWEALILLDSNKIQELGKQFGVGKYAKFFPVIFTGRTSESGLIRSITLKLGAPQRVRLLAYAKYAVYGLGYKPTSEPDFVEKSVISRSVMLMSYLRLRLILELMELFQGMKKLKHTIYGFYGQLVGGITNSVKRITCSV,failed
9,SEQSSPGFRQTHLQDLSEATQDVKEENHYLTPRSVLLELDNIIASSDSGESIETDGPDQVSGRIECHYEPMESYFFKETSHESVDSSKEEPQTLPETQDGDLHLQEQGSGIDWCLSPADVEAQTTNDQKGSASLTVVQLSILINNIPDESQVEKLNVFLSPPDVINYLALTEATGRICVSQWEGPRRLGCIFCHGDHLLAVNDLKPQSLEEVSLFLTRSIQKEKLKLTIGRIPNSETFHAASCMCPSKCQSAAPSQLDKPRLNRAPKRSPAIKKSQQKGARE,not failed
10,SGARRQALIDAQSWRLRYERIMREVGVATVEYEAASGRATWGMGAGKVLGEDVARISSLDEWLEHIAPDERGLVEATWSSVASGETWASEQSYTLMRTDGEPLRVRERLACVRGADDSVEMVVGMLRPEPLESGDG,failed
11,SGCRCCKIIQSYLFDPVQVPSPGYVNEVNSCKLDEDDTDKLKGKWSSEVLVQKNDPQRQGSKKTESSSRTADPWEPCWPHQGPLPQGDAGGEHHACGVNGIGPAATPQPTGNSSPTQDDRGSWASTANTVPPTQPFLEGGGTRKQDCVLLASEGTQVMRNGDSRAPSEAESFALEVQDHVFQIPAPDYLQHWGPAGDNVDHNEKDCVFKNHTEDESLEGIQPPVGEHGLNTPFSVRRSWDSLNEDVETEVLSICFNEKGPVHAMPVVDSGNRQEDTHGSDGDGDGEIVDEDAAVAEALAALEAATAGEDLDETD,not failed
12,SGFRKMAFPSGKVEGCMVQVTCGTTTLNGLWLDDTVYCPRHVICTAEDMLNPNYEDLLIRKSNHSFLVQAGNVQLRVIGHSMQNCLLRLKVDTSNPKTPKYKFVRIQPGQTFSVLACYNGSPSGVYQCAMRPNHTIKGSFLNGSCGSVGFNIDYDCVSFCYMHHMELPTGVHAGTDLEGKFYGPFVDRQTAQAAGTDTTITLNVLAWLYAAVINGDRWFLNRFTTTLNDFNLVAMKYNYEPLTQDHVDILGPLSAQTGIAVLDMCAALKELLQNGMNGRTILGSTILEDEFTPFDVVRQCSGVTFQ,not failed
13,SGIIKMAIRFDRRAYPPQITPKMCLLEWCRREKLPQPVYETVQRTIDRMFCSVVTVAEQKYQSTLWDKSKKLAEQTAAIVCLRSQGLPEGRLGEESPSLNKRKREAPDQDPGGPR,not failed
14,SGSSMEEKVVAVIMVGGPTKGTRFRPLSLNIPKPLFPIAGQPMVHHPISACKRIPNLAQIYLVGFYEEREFALYVSAISNELKVPVRYLREDKPHGSAGGLYHFRNLIMEDSPSHIFLLNCDVCCSFPLPKMLEAHRGYGGIGTLLVIKVSPESASQFGELVADPVTNELLHYTEKPETFVSDRINCGVYVFTPEIFNAIGDVSTQRKDRATLKRVSSFEALQPATRIPTDFVRLDQDILSPLAGKKRLYTYETMDFWEQIKSPGMSLRCSGLYLSQFRLTSPQLLASGDGTRSAIVIGDVYIHPSAKVHPTAKIGPNVSISANARVGPGVRLMSCIILDDVEIMENAVVTNAIVGWKSSIGRWSRVQAEGVYNSKLGVTILGDSVAVEDEVAVTSSIVLPNKTLNVSVQDEIIL,failed
15,SHMEIVPDTSVVIDGRVSDQVKADADPDTDVDGMGFAGATVVVPEAVVGELEAQANDGRETGWEGLEELQTLVDLAEEGTIDVEYVGRRPDAIEKREAGEGQIDALIRDIAGDRDATLVTSDDVQAEVARAKGLAVEFVDPVKRTVDRLQI,not failed
16,SHPCFVQGRPELLSQIKRKQSARTVEDKQVNEQTQQNLEVVMAEMRAMREKAKNMEDKMNKLTKENRDMWTQMGSMRQQHARQQQYFKKLLHFLVSVMQPGLSKRVAKRGVLEIDFCAANGTAGPNSKRARMNSEEGPYKDVCDLLESLQRETQEPFSRRFTNNEGPLISEVTDEFGNSPVGRGSAQDLFGDTFGAQSSRYSDGGATSSREQSPHPIISQPQSNSAGAHGANEQKPDDMYMGSGPLTHENIHRGISALKRDYQGASPASGGPSTSSSAPSGAGAGARMAQKRAAPYKNATRQMAQPQQDYSGGFVNNYSGFMPSDPSMIPYQPSHQYLQPHQKLMAIEDQHHPTTSTSSTNADPHQNLYSPTLGLSPSFDRQLSQELQEYFTGTDTSLESFRDLVSNHNWDDFGNNVPLDDDEEGSEDPLRQLALENAPETSNYDGAEDLLFDNEQQYPENGFDVPDPNYLPLADEEIFPHSPALRTPSPSDPNLV,not failed
17,SINKVLDHFRRKGINQHVQNGYHGIVMNNFECEPAFYTCVEVTAGNRLFYHIVDSDEVSTKILMEFNKMNLPGEVTFLPLNKLDVRDTAYPETNDAIPMISKLRYNPRFDKAFKHVFGKTLICRSMEVSTQLARAFTMDCITLEGDQVSHRGALTGGYYDTRKSRLELQKDVRKAEEELGELEA,failed
18,SKVEVIYKELGKQHRFSFKGQIFFVSIDSMMEKIDFNIEDSVIVLNFDHAHLWDDSAVNAIDTIVRKFEEKNNVVYVEKLNADSRKIISELSYLNETHL,failed
19,SKVWKYFGFDTNAEGCILQWKKIYCRICMAQIAYSGNTSNLSYHLEKNHPEEFCEFVKSN,not failed
20,SLDDDDYPAYTMGRAAAILGTTPAFLRALGDARLITPLRSEGGHRRYSRYQLRIAARARELVDQGTPVEAACRIIILEDQLEDALRLNEEMRRSSDQPTA,failed
21,SLGSLPPAAMESMESLRLKDKNEPVQNLPIQKSIDDVDSKLKGIGKPRKFSKFSLYKQLHRHHLHDADSISSIDSTSSYFNHYRSHHNLIHGLKPHFKLFHPSS,failed
22,SLKKNPRDIVTKKANIRIKTALSKMFNAMAKVTYDIDEADGDVIVNTAFIDKKYLDEAFDILKEAYKKGLGISDRFGIVEENDRIKIQTICAVTLDGIFLRNSVPLIPKYGGILEITEDKERFIDIIGYDGSSLDPHEVFFNFVDCEKTFLAGFREVHRVAREKLEEVLKKLNWNGIKAIGEPNNELYGIGVNKDMCGVVTMGGINPLVLLKENEIPIELKAMHEVVRFSDLKSYKEI,not failed
23,SLKKVITVNEWYTTTVAATMLGRRPTDEDAILVSAPATSRPNVRIKAVFDGHAGEATSQYCAKHAAKHLGKLSEFTFAEVKKACLSLDAEIIRKLGPKHVAGSTGIIVAIERLSAPVVENVVGREIVPRAHEETFVPLEKLIQEEEEAEHPELVGRYPRVPDVQQKTIPAGSFLVTAINIGDSRATLIHSDGGLTRLSKDHKPNHPTEASRIEKAGGSVETFDVPRVDGVLALSRAFGDSDFKMNPNLPPEEQKVIAVPDVRQFYALSSDLLLLACDGVYEPSGMDWAYVRDLTVAEMQRSKGDLEEVAARVMDYAYDMNSQDNISVMLVAFHNQEVEHPTAVYKVVSGQVDKVEWDVAGKKGN,not failed
24,SLLDVAVSPDDRFILTADRDEKIRVSWAAAPHSIESFCLGHTEFVSRISVVPTQPGLLLSSSGDGTLRLWEYRSGRQLHCCHLASLQELVDPQAPQKFAASRIAFWCQENCVALLCDGTSVVYIFQLDARRQQLVYRQQLAFQHQVWDVAFEETQGLWVLQDCQEAPLVLYRPVGDQWQSVPESTVLKKVSGVLRGNWAMLEGSAGADASFSSLYKATFDNVTSYLKKKEERLQQQLEKKQRRRSPPPGPDGHAKKMRPGEATLSC,failed
25,SLLSYQHGYHAGNFADVIKHITLTRLLAYLTHKDKPLFYLETHSGRGIYDLKDKQSLKTEEYKEGINPVWLDRENLPSLFLEYISVIKQINLNSTLSYYPGSPYFAINQLRSQDRLYLCELHPTEYNFLLKLPHFNKKVYVNHTDGVSKLNALLPPPEKRGLIFIDPSYERKEEYKEIPYAIKNAYSKFSTGLYCVWYPVVNKAWTEQFLRKMREISSKSVRIELHLNPLINEGMTGCGLWIINPPYTFPSEIKLVLETLTTYFNPGSSSYMIESGSKLCHGL,not failed
26,SLPMQHVHTSPVRDYRNRCARREGETVFQVVVEETDLRVTALAELATPMAAYVGELRAQLKVWMEFQPAFRHSLVPVEVPEGAPEVVRRMAHGARLVGVGPFAAVAGTIAQMVAERFVDVSPELIVENGGDLYLYSERDRVVGILPDPASGDMVGILVRAGTAPVSLCGSSARIGHSLSLGDGDLAVVRARDASLADAAATAFGNMLRRADDVAAVTERAAQLASIGIEGVYAQCGGRIGIWGDMELAVA,not failed
27,SLRLHAGVWGLKVRYEGSFEVSKTPEEVFEFLTDPKRFSRAFPGFKSVEVEDGSFTIELRLSLGPLRGDARVRASFEDLEKPSKATVKGSGRGAGSTLDFTLRFAVEPSGGGSRVSWVFEGNVGGLAASMGGRVLDSLARRMINDVISGVKRELGEA,not failed
